Reference: publication PMC5518878

B1: GRK1 (1-183)-TEV protease fusion (domain or fragment)
chain: MDFGSLETVVANSAFIAARGSFDGSSSQPSRDKKYLAKLKLPPLSKCESLRDSLSLEFESVCLEQPIGKKLFQQFLQSAEKHLPALELWKDIEDYDTADNDLQPQKAQTILAQYLDPQAKLFCSFLDEGIVAKFKEGPVEIQDGLFQPLLQATLAHLGQAPFQEYLGSLYFLRFLQWKWLEAQ
B2: GRK1 (31-183)-TEV protease fusion (domain or fragment)
chain: RDKKYLAKLKLPPLSKCESLRDSLSLEFESVCLEQPIGKKLFQQFLQSAEKHLPALELWKDIEDYDTADNDLQPQKAQTILAQYLDPQAKLFCSFLDEGIVAKFKEGPVEIQDGLFQPLLQATLAHLGQAPFQEYLGSLYFLRFLQWKWLEAQ

Target: full-length rhodopsin of Figure 2A, fused to a TEV cleavage site and tTA (human) (UniProt P08100)
Sequence (P08100 whole entry, the tested form may be a part): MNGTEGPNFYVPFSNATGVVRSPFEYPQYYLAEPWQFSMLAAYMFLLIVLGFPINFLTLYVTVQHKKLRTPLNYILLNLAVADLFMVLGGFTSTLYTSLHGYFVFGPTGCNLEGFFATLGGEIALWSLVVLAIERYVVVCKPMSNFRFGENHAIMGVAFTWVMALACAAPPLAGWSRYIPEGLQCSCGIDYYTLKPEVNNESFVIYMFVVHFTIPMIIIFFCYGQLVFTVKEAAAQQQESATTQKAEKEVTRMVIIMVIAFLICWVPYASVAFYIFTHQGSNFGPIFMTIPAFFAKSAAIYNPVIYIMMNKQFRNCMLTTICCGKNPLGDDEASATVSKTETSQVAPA
Experiment: Tango assay (TEV protease proximity reporter); HTL cells co-transfected with receptor-TEV cleavage site-tTA and GRK-TEV protease fusions; luciferase reporter; vehicle or ligand overnight (ATR 10 μM for rhodopsin; paroxetine; DHE 0.1 μM, GR 127935 1 μM; SX 1 μM, ICI 118 551 1 μM); DNA amounts adjusted for similar expression

binding capacity, percent of FL GRK1 [%]	Binder
70	B1
70	B2
